In patent publication US20170175137A1:

Target: PD-L1 on FEMX melanoma cells (UniProt Q9NZQ7)
Assay: cell-based or functional assay

UniProt Q9NZQ7, sequence (Q9NZQ7 19-290 limits assumed): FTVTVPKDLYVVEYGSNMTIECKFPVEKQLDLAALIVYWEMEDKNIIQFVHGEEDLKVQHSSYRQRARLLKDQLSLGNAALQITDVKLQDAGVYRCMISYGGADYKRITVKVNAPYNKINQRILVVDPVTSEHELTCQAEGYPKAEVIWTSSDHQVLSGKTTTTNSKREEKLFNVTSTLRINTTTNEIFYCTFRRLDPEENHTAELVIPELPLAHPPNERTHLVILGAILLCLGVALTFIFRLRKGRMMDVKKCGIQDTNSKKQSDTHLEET

fraction of CD3+CD8+ TIL making IFN-gamma in a 12-hour intracellular cytokine release (ICS) assay, 1520 TIL co-cultured with FEMX tumor cells, antibody at 10 µg/mL: 37.3%
B1: blocking anti-PD-L1 antibody (Biolegend clone 29E.2A3) (antibody, from another filing, V domains shown)
VH: EVQLQQSGPELVKPGASVKMSCKASGYTFTSYVMHWVKQKPGQGLEWIGYVNPFNDGTKYNEMFKGKATLTSDKSSSTAYMELSSLTSEDSAVYYCARQAWGYPWGQGTLVTVSA
VL: DIVLTQSPASLAVSLGQRATISCRATESVEYYGTSLVQWYQQKPGQPPKLLIYAASSVDSGVPARFSGSGSGTDFSLTIHPVEEDDIAMYFCQQSRRVPYTFGGGTKLEIK
